{"source": "paper doi:10.1101/2024.03.29.587195", "about": "(bioRxiv, 2024)", "proteins": {"B1": {"name": "CoaXMtb, untagged, recombinant (cryo-EM sample) (natural protein)", "chain": "MLLAIDVRNTHTVVGLLSGMKEHAKVVQQWRIRTESEVTADELALTIDGLIGEDSERLTGTAALSTVPSVLHEVRIMLDQYWPSVPHVLIEPGVRTGIPLLVDNPKEVGADRIVNCLAAYDRFRKAAIVVDFGSSICVDVVSAKGEFLGGAIAPGVQVSSDAAAARSAALRRVELARPRSVVGKNTVECMQAGAVFGFAGLVDGLVGRIREDVSGFSVDHDVAIVATGHTAPLLLPELHTVDHYDQHLTLQGLRLVFERNLEVQRGRLKTAR"}}, "target": "the molecule itself", "assay": "cryo-EM structure", "note": "Where “and” joins values, the source holds several entries; their conditions need not be identical. Equal values may be shown once."}
{"protein": "B1", "values": [{"measurement": "stoichiometry N", "value": "6 and 4"}]}
